Source: patent US20230272050A1, “BINDING PROTEIN SPECIFIC FOR THE SPIKE PROTEIN OF SEVERE ACUTE RESPIRATORY SYNDROME CORONA VIRUS 2 (SARS-COV-2)” (priority 2020, published 2023)

Biological target: mutant of SARS CoV-2 S protein (69del, 70del, Y144del, N501Y, A570D, D614G, P681H, T7161, S982A, D1118H) (Severe acute respiratory syndrome coronavirus 2, UniProt P0DTC2, A570D/D1118H/D614G/DEL144-144/N501Y/P681H/S982A/T716I)

212434 (NAAVLDIAQHSATEEIWWLPNLTKQQKVWFIMSLTQDPSVSKEVLGEAQKLNDSQAPK) [compound 212434]
binding affinity to mutant S protein (B.1.1.7), qualitative: showed binding affinity
